Assay results as given in article PMC9204724 (iScience, 2022).
Where two headings read alike, the source gives them in different places. Values belong to the molecule of their own block, whether it stands above or below them.

How the values were obtained:
[1] = molecular target: T1, acto-Myo1C^0-ΔTH1 (no Tpm) (Homo sapiens, UniProt O00159); type: binding
[2] = molecular target: β-actin–AcTpm1.6 cofilament (human) (UniProt P60709)
[3] = molecular target: β-actin–AcTpm2.1 cofilament (human) (UniProt P60709)
[4] = molecular target: β-actin–AcTpm3.1 cofilament (human) (UniProt P60709)
[5] = molecular target: β-actin–AcTpm4.2 cofilament (human) (UniProt P60709)
[6] = molecular target: β-actin–Tpm1.6 cofilament (human) (UniProt P60709)
[7] = molecular target: β-actin–Tpm2.1 cofilament (human) (UniProt P60709)
[8] = molecular target: β-actin–Tpm3.1 cofilament (human) (UniProt P60709)
[9] = molecular target: β-actin–Tpm4.2 cofilament (human) (UniProt P60709)
[10] = molecular target: T1, acto-Myo1C^0-ΔTH1 (no Tpm); experiment: stopped-flow, pyrene-actin fluorescence, K0.[…] of fast phase vs [ATP]; type: binding
[11] = molecular target: human β-actin, filamentous (human) (UniProt P60709)
[12] = molecular target: chicken skeletal muscle α-actin, filamentous (chicken) (UniProt P68139); experiment: stopped-flow kinetics
[13] = molecular target: α-actin–Tpm1.7 cofilament (chicken | human) (UniProt P68139); experiment: stopped-flow kinetics
[14] = molecular target: α-actin–Tpm3.1 cofilament (chicken | human) (UniProt P68139); experiment: stopped-flow kinetics

T1 sequence (O00159 36-891, stated change not applied): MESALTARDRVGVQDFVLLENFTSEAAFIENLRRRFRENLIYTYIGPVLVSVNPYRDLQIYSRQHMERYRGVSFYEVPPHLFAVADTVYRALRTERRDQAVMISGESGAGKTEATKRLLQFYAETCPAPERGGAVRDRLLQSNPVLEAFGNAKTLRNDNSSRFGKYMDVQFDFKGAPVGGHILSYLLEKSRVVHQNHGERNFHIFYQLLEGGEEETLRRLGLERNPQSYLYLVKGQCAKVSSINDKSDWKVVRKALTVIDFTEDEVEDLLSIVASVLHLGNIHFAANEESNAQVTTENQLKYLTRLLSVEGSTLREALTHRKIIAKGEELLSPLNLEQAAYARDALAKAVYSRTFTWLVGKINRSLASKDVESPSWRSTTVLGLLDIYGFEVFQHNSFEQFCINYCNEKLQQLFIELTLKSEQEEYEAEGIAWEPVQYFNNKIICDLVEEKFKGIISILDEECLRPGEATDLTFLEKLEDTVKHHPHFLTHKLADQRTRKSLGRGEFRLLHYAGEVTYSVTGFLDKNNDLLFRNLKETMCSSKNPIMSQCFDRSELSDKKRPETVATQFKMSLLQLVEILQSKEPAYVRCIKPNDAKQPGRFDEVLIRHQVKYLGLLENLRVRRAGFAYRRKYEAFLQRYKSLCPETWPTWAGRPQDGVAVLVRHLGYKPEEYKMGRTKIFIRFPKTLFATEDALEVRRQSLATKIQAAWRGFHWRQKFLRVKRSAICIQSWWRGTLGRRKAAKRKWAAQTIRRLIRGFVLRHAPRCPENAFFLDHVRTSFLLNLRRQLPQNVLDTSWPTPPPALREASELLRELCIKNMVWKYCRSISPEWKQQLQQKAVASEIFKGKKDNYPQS

Molecule: human non-muscle myosin-2A heavy meromyosin (NM-2A-HMM) with essential and regulatory light chains, phosphorylated (from UniProt P35579-1;P60660-1;O14950) (complex)
Kapp of the actin-activated steady-state ATPase (Michaelis–Menten fit, 30 °C) [2]: 17.7 µM
kcat/Kapp of the actin-activated steady-state ATPase (30 °C) [2]: 17400 M⁻¹ s⁻¹
Kapp of the actin-activated steady-state ATPase (Michaelis–Menten fit, 30 °C) [3]: 40.9 µM
Kapp of the actin-activated steady-state ATPase (Michaelis–Menten fit, 30 °C) [4]: 26.6 µM
Kapp of the actin-activated steady-state ATPase (Michaelis–Menten fit, 30 °C) [5]: 26.1 µM
kcat/Kapp of the actin-activated steady-state ATPase (30 °C) [5]: 23400 M⁻¹ s⁻¹
Kapp of the actin-activated steady-state ATPase (Michaelis–Menten fit, 30 °C) [6]: 27.8 µM
kcat/Kapp of the actin-activated steady-state ATPase (30 °C) [6]: 12400 M⁻¹ s⁻¹
Kapp of the actin-activated steady-state ATPase (Michaelis–Menten fit, 30 °C) [7]: 37.8 µM
kcat/Kapp of the actin-activated steady-state ATPase (30 °C) [7]: 10200 M⁻¹ s⁻¹
Kapp of the actin-activated steady-state ATPase (Michaelis–Menten fit, 30 °C) [8]: 19.6 µM
kcat/Kapp of the actin-activated steady-state ATPase (30 °C) [8]: 29100 M⁻¹ s⁻¹
Kapp of the actin-activated steady-state ATPase (Michaelis–Menten fit, 30 °C) [9]: 26.2 µM
kcat/Kapp of the actin-activated steady-state ATPase (30 °C) [9]: 11200 M⁻¹ s⁻¹

Molecule: human tropomyosin Tpm1.8, non-acetylated (natural protein)
Tdiss [11]: 41.6 °C

Molecule: human Myo1C^0-ΔTH1, tail truncated myosin-1C isoform C^0, co-produced with calmodulin (from UniProt P0DP23 1-149) (complex)
Kd [12]: 13.7 nM
kon [12]: 1.46e+06 M⁻¹ s⁻¹
Kd [13]: 19.6 nM
kon [13]: 1.33e+06 M⁻¹ s⁻¹
Kd [14]: 18.4 nM
kon [14]: 1.36e+06 M⁻¹ s⁻¹

Next, values leading:

Kd [1]: 460 ± 80 nM
Molecule: Nc1ncnc2c1ncn2[C@@H]1O[C@H](COP(=O)(O)OP(=O)(O)O)[C@@H](O)[C@H]1O [ADP]

Kd [10]: 154000 ± 31000 nM
Molecule: Nc1ncnc2c1ncn2[C@@H]1O[C@H](COP(=O)(O)OP(=O)(O)OP(=O)(O)O)[C@@H](O)[C@H]1O [ATP]
